According to article PMC3573033, “Allosteric Regulation of Serine Protease HtrA2 through Novel Non-Canonical Substrate Binding Pocket” (PLoS ONE, 2013):

Experiments:
[1] = biological target: T1, HtrA2 (High temperature requirement protease A2), mature (Δ133 HtrA2), wild type (UniProt O43464 134-458); assay: ITC; MicroCal ITC200; 200 µl of wild type or N216A/S219A HtrA2 (20 to 50 µM) in the cell, titrated with 1.5 µl injections of 0.4 mM activator peptide; 20 mM Na2HPO4/NaH2PO4, 100 mM NaCl, pH 7.8; 25°C; one site-binding model; details: both partners purified
T1 construct: HtrA2 (High temperature requirement protease A2), mature form Δ133, 325 amino acids; numbers count on: the mature protein; source: E. coli BL21 (DE3) pLysS, purified (nickel-IDA, gel permeation chromatography)
T1 sequence (looked up): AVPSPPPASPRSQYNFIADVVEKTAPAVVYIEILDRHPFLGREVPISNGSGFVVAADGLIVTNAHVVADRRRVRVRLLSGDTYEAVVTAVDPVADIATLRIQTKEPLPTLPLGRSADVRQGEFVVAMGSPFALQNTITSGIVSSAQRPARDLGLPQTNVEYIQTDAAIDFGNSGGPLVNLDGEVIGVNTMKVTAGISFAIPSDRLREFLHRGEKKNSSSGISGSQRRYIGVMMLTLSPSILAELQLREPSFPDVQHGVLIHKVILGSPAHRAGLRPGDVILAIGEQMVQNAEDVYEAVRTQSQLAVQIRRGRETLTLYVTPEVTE

[2] = biological target: HtrA2 (High temperature requirement protease A2), mature (Δ133 HtrA2), wild type (UniProt O43464)
[3] = biological target: HtrA2 N-SPD (N-terminal and serine protease domains, residues 1-210)

Binder	Kd [1] [µM]	Km, cleavage of FITC-labelled β-casein (steady state kinetics) [2] [µM]	Km, cleavage of FITC-labelled β-casein (steady state kinetics) [3] [µM]
SEHRRHFPNCFFV [13mer activating peptide SEHRRHFPNCFFV]	7.5	–	–
FITC-labelled β-casein (natural protein, FITC label) RELEELNVPGEIVESLSSSEESITRINKKIEKFQSEEQQQTEDELQDKIHPFAQTQSLVYPFPGPIPNSLPQNIPPLTQTPVVVPPFLQPEVMGVSKVKEAMAPKHKEMPFPKYPVEPFTESQSLTLTDVENLHLPLPLLQSWMHQPHQPLPPTVMFPPQSVLSLSQSKVLPVPQKAVPYPQRDMPIQAFLLYQEPVLGPVRGPFPIIV	–	4.59	3.02
